Values belong to the compound of their own block, whether it stands above or below them. Where a SMILES comes first, the peptide text is derived from it.
What was measured:
GRPR = biological target: T1, GRPR (Homo sapiens, UniProt P30550); test: In vitro receptor binding assay, competition with 99mTc-BNS; details: unlabeled analogs, radioligand 99mTc-BNS
T1 construct: endogenous in cells; host or cells: MDA-MB-231 human breast cancer cells (from NCCS, Pune)
Experimental: One day prior to the assay, cells at the confluence were placed in 12-well plates. […] Inhibitory assays were done on GRPR-expressing MDA-MB-231 human breast cancer cells using the standard procedure with modifications. […] After 1-h incubation, cells were washed twice with cold PBS. Receptor bound radioactivity was recovered by solubilizing the cells with 400 μL 1 N NaOH at 37 °C. Binding activities were evaluated in the gamma counter. IC50 (the best-fit 50% inhibitory concentration) values were determined using nonlinear regression.
It may be mentioned that non-radioactive Re complex can be used in place of its unlabeled ligand to determine the binding affinity after complexation reaction. This is being proposed to use the non-radioactive Re complex in place of its unlabeled ligand to determine the binding affinity after complexation in future studies.

MDA-MB-231 cells = test: Western blot analysis; format: cell-based, human; details: 24 h, BN3, BN4 7.5 and 5 pM, BNS 7.5 pM
Source text: After washing in ice-cold PBS, proteins were extracted from cells with lysis buffer containing 100 mmol/L Tris-HCl, pH 8.0, 150 mmol/L NaCl, 1% sodium dodecyl sulfate, 10% glycerol, 1% Triton X, 5 mmol/L ethylenediaminetetraacetic acid, 1 mmol/L phenyl methyl sulfonyl fluoride, 10 mmol/L sodium fluoride, 1 mmol/L sodium orthovanadate, 1 mmol/L-glycerophosphate, and protease inhibitor cocktail tablets (Roche, Switzerland). Total proteins from cell were also extracted by using standard procedure. Protein concentrations were determined by Bradford reagent (BioRad, USA). Extracted proteins were separated by sodium dodecyl sulphate polyacrylamide gel electrophoresis and transferred to polyvinylidene fluoride (PVDF) membranes. Membranes blocking were done by 5% nonfat milk in Tris-buffered saline containing 0.1% polysorbate-20 and incubated with primary antibodies GRPR (Abcam, USA), VEGF, PCNA, Phospho-p38, and HIF-1α (Santa Cruz Biotechnology) for overnight at 4 °C. β-actin antibodies (Millipore) were used to confirm equal protein loading. Detection of primary antibodies was done by alkaline phosphatase conjugated secondary antibodies (1:5000 dilutions) and the detection was done by colorimetry using NBT-BCIP as substrate (Sigma-Aldrich). Detection of GRPR primary antibody was done by horseradish peroxidase conjugated secondary antibodies. The level of β-actin was used as a loading control and was not altered under any of the condition used.

in vitro = in vitro ADME; details: rat
Experimental: An aliquot (100 μL) of ^99mTc-BN1/^99mTc-BN2/^99mTc-BN3/^99mTc-BN4/^99mTc-BNS was added to 1 mL of freshly collected rat serum in centrifuge tube. The mixture was then incubated at 37 °C for 1 h; the serum protein was precipitated by adding 1 mL trichloroacetic acid (10%, V/V). The supernatant and precipitate were separated by centrifugation at 3000 rpm for 5 min. Radioactivities of both the phases were measured separately. The above experimental procedure was repeated three times. The percentage of protein binding was determined as: Plasma protein binding % = (precipitate counts (CPM) / [precipitate counts (CPM) + plasma counts (CPM)]) × 100%.

physchem = format: physicochemical; details: pH 7.4
Experimental: Lipophilicity of the HPLC-purified radiopeptide analogs was determined through octanol/water partition coefficients, determined at pH 7.4 by measuring the distribution of the HPLC purified radiolabeled peptides in 1-octanol and PBS. Then, 50 μL HPLC purified ^99mTc-BN1/^99mTc-BN2/^99mTc-BN3/^99mTc-BN4/^99mTc-BNS with 100 μCi of radiolabeled compound in PBS was added to a to a centrifuge tube containing 1 mL n-octanol and 1 mL PBS (0.025 M, pH 7.4). The tube was vortexed at room temperature for 2 min and they are centrifuged at 5000 rpm for 5 min to ensure complete separation of layers. Further, 100 μL of each phase was transferred into a separate pre-weighed vial and measured in the well γ-counter. The ratio of octanol layer counts to aqueous layer counts was expressed as the distribution coefficient (D, the appropriate descriptor for ionizable compounds) and logD was used for determination of lipophilicity. Counts per unit weight of the sample were calculated, and logD value as calculated as follows:
log10D = log10 [(cpm in octanol – cpm in background) / (cpm in buffer – cpm in background)]

[1] = system: MDA-MB-231 tumor-bearing mice; test: In vivo biodistribution; design: species or system mouse; details: mean ± SD, n = 3; for Tumor uptake: MDA-MB-231 tumor
Experimental: All animal experiments were done according to the CSIR-IICB Animal Ethics Committee’s rules and regulation. Forty-eight hours before tumor cell implantation, an immunosuppressive drug (cyclosporine-A) was given intraperitoneal (i.p) at a concentration of 30 mg/kg/day. After that, MDA-MB-231 cells (5 × 10^6) 0.2 mL were implanted subcutaneously into the left flanks of the hind leg of BALB/c mice. Thereafter, the same dose of cyclosporine was given i.p. daily up to 2 weeks. Two weeks after inoculation of the tumor cells, when tumors reached ~ 0.5 cm in mean diameter, the tumor-bearing mice were used for biodistribution and imaging studies. Animals were monitored daily and their weights were recorded. Control group of mice received only 0.9 wt% saline. After cell implantation, the growth rate of the breast tumor followed a satisfactory pattern of spheroid shape and tumors are palpable within 2 to 4 weeks. MDA-MB-231 cell implanted mice tumor models were used for biodistribution and planar imaging studies of these radiolabeled new bombesin analogs.
In tissue biodistribution studies, tumor-bearing animals were divided into four groups and well hydrated for 1 h by intraperitoneal administration of saline (0.9%, 2 mL). Three animals per groups were used for biodistribution studies. After that, the radiolabeled new bombesin analogs (^99mTc-BN) were injected intravenously in each animal of each group consequently through the tail vein [24–27]. After 5, 30, 60, and 120 min intravenous administrations of radiolabeled analogs, the animals were sacrificed; blood, heart, lung, liver, kidney, stomach, intestine, spleen, pancreas, brain, muscle, and tumor were excised, weighed, and counted for radioactivity. The organ uptake was calculated as a percentage of the injected activity per gram of wet tissue (%IA/g). In order to evaluate whether binding of bombesin analogs to MDA-MB-231 cells in vivo is specific; blocking studies with ^99mTc-labeled bombesin analogs in tumor-bearing mice were carried out. Groups of three animals were injected 0.03 nmol of ^99mTc-labeled BN analogs (2 MBq) with 25 nmol of non-radiolabeled BN peptide. After 60 min and 120 min, mice were sacrificed and the organs were collected. Each organ was weighed and counted in a gamma counter along with activity standard and percentage of injected activity per gram (%IA/g) of tissue was calculated for each type of tissues. Counts were corrected for background radiation and physical decay of the radioactivity. The uptake was expressed in the percentage of injected activity per gram of each organ (%IA/g). Data were analyzed statistically by the t test, with the level of significance set at P < 0.05.

[2] = GRP receptor expressing MDA-MB-231 cells, values printed in Fig. 4
[3] = 60 min p.i., blocked with excess non-radiolabeled BN peptide

T1 sequence (P30550 whole entry): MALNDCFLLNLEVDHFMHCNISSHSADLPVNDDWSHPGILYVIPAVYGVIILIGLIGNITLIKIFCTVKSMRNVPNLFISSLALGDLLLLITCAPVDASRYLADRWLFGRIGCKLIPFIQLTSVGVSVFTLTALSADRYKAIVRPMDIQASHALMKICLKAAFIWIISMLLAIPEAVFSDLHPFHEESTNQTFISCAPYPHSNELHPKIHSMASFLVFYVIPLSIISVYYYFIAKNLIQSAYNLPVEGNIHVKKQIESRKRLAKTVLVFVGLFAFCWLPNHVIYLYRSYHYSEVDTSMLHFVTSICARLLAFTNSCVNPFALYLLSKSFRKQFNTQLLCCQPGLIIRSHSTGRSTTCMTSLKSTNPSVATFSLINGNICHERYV

IC50 (GRPR; [2]): 4.47 nM
IC50 (GRPR; MDA-MB-231 cells/membranes, 1 h, 37 °C): 3.96 nM
Compound: CCCC[C@H](NC(=O)[C@@H](Cc1ccccc1)NC(=O)[C@H](Cc1c[nH]cn1)NC(=O)CNC(=O)[C@@H](NC(=O)[C@H](C)NC(=O)[C@H](Cc1c[nH]c2ccccc12)NC(=O)[C@H](CCC(N)=O)NC(=O)[C@H](CC(=O)O)NC(=O)c1ccc(NN)nc1)C(C)C)C(N)=O [BN1, HYNIC-Asp-[D-Phe^13Nle^14]BN(7-14)NH2] (HELM PEPTIDE1{[NNc1ccc(C(=O)[*:2])cn1].D.Q.W.A.V.G.H.[dF].[Nle].[am]}$$$$V2.0)

IC50 (GRPR; [2]): 4.63 nM
Compound: CSCC[C@H](NC(=O)[C@@H](Cc1ccc(O)cc1)NC(=O)[C@H](Cc1c[nH]cn1)NC(=O)CNC(=O)[C@@H](NC(=O)[C@H](C)NC(=O)[C@H](Cc1c[nH]c2ccccc12)NC(=O)[C@H](CCC(N)=O)NC(=O)[C@H](CC(=O)O)NC(=O)[C@@H]1CCCN1C(=O)c1ccc(NN)nc1)C(C)C)C(N)=O [BN2, HYNIC-Pro-Asp-[D-Tyr^13Met^14] BN(7-14)NH2] (HELM PEPTIDE1{[NNc1ccc(C(=O)[*:2])cn1].P.D.Q.W.A.V.G.H.[dY].M.[am]}$$$$V2.0)

Compound: CCCC[C@H](NC(=O)[C@@H](CC1CCCCC1)NC(=O)[C@H](Cc1c[nH]cn1)NC(=O)[C@H](CCCCN)NC(=O)[C@@H](NC(=O)[C@H](C)NC(=O)[C@H](Cc1c[nH]c2ccccc12)NC(=O)[C@H](CCC(N)=O)NC(=O)[C@H](CC(N)=O)NC(=O)[C@H](CC(=O)O)NC(=O)c1ccc(NN)nc1)C(C)C)C(N)=O [BN3, HYNIC-Asp-Asn-[Lys^5-D-CHAla^13Nle^14]BN(7-14)-NH2] (HELM PEPTIDE1{[NNc1ccc(C(=O)[*:2])cn1].D.N.Q.W.A.V.K.H.[O=C([C@@H](CC1CCCCC1)N[*:1])[*:2]].[Nle].[am]}$$$$V2.0)
level of GRPR (Western blot) (MDA-MB-231 cells): significantly increased level of GRPR

Compound: CSCC[C@H](NC(=O)[C@H](CC(C)C)NC(=O)[C@H](Cc1c[nH]cn1)NC(=O)CNC(=O)[C@@H](NC(=O)[C@H](C)NC(=O)[C@H](Cc1c[nH]c2ccccc12)NC(=O)[C@@H](N)CCC(N)=O)C(C)C)C(N)=O [BNS, reference compound]
level of GRPR (Western blot) (MDA-MB-231 cells): significantly increased level of GRPR

Compound: ^99mTc-HYNIC-Pro-Asp-[Tyr^13Met^14]BN(7-14)NH2 [99mTc-BN2]
Percentage of plasma protein binding (in vitro): 41.23%
logD (physchem): − 1.78 ± 0.04
Tumor uptake ([1]; 5 min p.i., i.v.): 0.79 ± 0.12 %IA/g
Blood uptake ([1]; 5 min p.i., i.v.): 1.03 ± 0.05 %IA/g
Heart uptake ([1]; 5 min p.i., i.v.): 0.59 ± 0.02 %IA/g
Intestine uptake ([1]; 5 min p.i., i.v.): 0.73 ± 0.03 %IA/g
Kidney uptake ([1]; 5 min p.i., i.v.): 2.05 ± 0.10 %IA/g
Liver uptake ([1]; 5 min p.i., i.v.): 1.47 ± 0.07 %IA/g
Lung uptake ([1]; 5 min p.i., i.v.): 0.91 ± 0.04 %IA/g
Muscle uptake ([1]; 5 min p.i., i.v.): 0.24 ± 0.01 %IA/g
Pancreas uptake ([1]; 5 min p.i., i.v.): 0.95 ± 0.01 %IA/g
Spleen uptake ([1]; 5 min p.i., i.v.): 0.95 ± 0.04 %IA/g
Stomach uptake ([1]; 5 min p.i., i.v.): 0.74 ± 0.03 %IA/g
Urine + urinary bladder uptake ([1]; 5 min p.i., i.v.): 0.56 ± 0.02 %IA/g
Tumor uptake ([1]; 30 min p.i., i.v.): 1.85 ± 0.05 %IA/g
Blood uptake ([1]; 30 min p.i., i.v.): 0.78 ± 0.03 %IA/g
Heart uptake ([1]; 30 min p.i., i.v.): 0.46 ± 0.01 %IA/g
Intestine uptake ([1]; 30 min p.i., i.v.): 1.05 ± 0.05 %IA/g
Kidney uptake ([1]; 30 min p.i., i.v.): 4.76 ± 0.20 %IA/g
Liver uptake ([1]; 30 min p.i., i.v.): 1.23 ± 0.06 %IA/g
Lung uptake ([1]; 30 min p.i., i.v.): 0.89 ± 0.11 %IA/g
Muscle uptake ([1]; 30 min p.i., i.v.): 0.20 ± 0.02 %IA/g
Pancreas uptake ([1]; 30 min p.i., i.v.): 2.07 ± 0.10 %IA/g
Spleen uptake ([1]; 30 min p.i., i.v.): 0.75 ± 0.03 %IA/g
Stomach uptake ([1]; 30 min p.i., i.v.): 1.01 ± 0.05 %IA/g
Urine + urinary bladder uptake ([1]; 30 min p.i., i.v.): 1.92 ± 0.07 %IA/g
Tumor uptake [1, 3]: 0.78 ± 0.03 %IA/g
Blood uptake [1, 3]: 0.38 ± 0.01 %IA/g
Heart uptake [1, 3]: 0.27 ± 0.02 %IA/g
Intestine uptake [1, 3]: 1.25 ± 0.02 %IA/g
Kidney uptake [1, 3]: 3.37 ± 0.10 %IA/g
Liver uptake [1, 3]: 1.09 ± 0.04 %IA/g
Lung uptake [1, 3]: 0.73 ± 0.04 %IA/g
Muscle uptake [1, 3]: 0.20 ± 0.02 %IA/g
Pancreas uptake [1, 3]: 0.85 ± 0.02 %IA/g
Spleen uptake [1, 3]: 0.45 ± 0.03 %IA/g
Stomach uptake [1, 3]: 0.70 ± 0.02 %IA/g
Urine + urinary bladder uptake [1, 3]: 4.50 ± 0.08 %IA/g
Tumor uptake ([1]; 60 min p.i., i.v.): 0.98 ± 0.04 %IA/g
Blood uptake ([1]; 60 min p.i., i.v.): 0.35 ± 0.01 %IA/g
Heart uptake ([1]; 60 min p.i., i.v.): 0.23 ± 0.12 %IA/g
Intestine uptake ([1]; 60 min p.i., i.v.): 1.46 ± 0.02 %IA/g
Kidney uptake ([1]; 60 min p.i., i.v.): 3.34 ± 0.16 %IA/g
Liver uptake ([1]; 60 min p.i., i.v.): 1.01 ± 0.05 %IA/g
Lung uptake ([1]; 60 min p.i., i.v.): 0.78 ± 0.03 %IA/g
Muscle uptake ([1]; 60 min p.i., i.v.): 0.18 ± 0.03 %IA/g
Pancreas uptake ([1]; 60 min p.i., i.v.): 1.08 ± 0.05 %IA/g
Spleen uptake ([1]; 60 min p.i., i.v.): 0.48 ± 0.02 %IA/g
Stomach uptake ([1]; 60 min p.i., i.v.): 0.82 ± 0.04 %IA/g
Urine + urinary bladder uptake ([1]; 60 min p.i., i.v.): 4.54 ± 0.22 %IA/g
Tumor uptake ([1]; 120 min p.i., i.v.): 0.54 ± 0.02 %IA/g
Blood uptake ([1]; 120 min p.i., i.v.): 0.07 ± 0.01 %IA/g
Heart uptake ([1]; 120 min p.i., i.v.): 0.12 ± 0.01 %IA/g
Intestine uptake ([1]; 120 min p.i., i.v.): 0.18 ± 0.01 %IA/g
Kidney uptake ([1]; 120 min p.i., i.v.): 2.45 ± 0.12 %IA/g
Liver uptake ([1]; 120 min p.i., i.v.): 0.53 ± 0.02 %IA/g
Lung uptake ([1]; 120 min p.i., i.v.): 0.42 ± 0.02 %IA/g
Muscle uptake ([1]; 120 min p.i., i.v.): 0.12 ± 0.04 %IA/g
Pancreas uptake ([1]; 120 min p.i., i.v.): 0.89 ± 0.04 %IA/g
Spleen uptake ([1]; 120 min p.i., i.v.): 0.24 ± 0.11 %IA/g
Stomach uptake ([1]; 120 min p.i., i.v.): 0.41 ± 0.02 %IA/g
Urine + urinary bladder uptake ([1]; 120 min p.i., i.v.): 5.55 ± 0.03 %IA/g

— publication PMC6423188, “HYNIC and DOMA conjugated radiolabeled bombesin analogs as receptor-targeted probes for scintigraphic detection of breast tumor” (EJNMMI Research, 2019)
